The target in this test is biotinylated GST (Schistosoma japonicum (Blood fluke), UniProt P08515 = GST, biotinylated (sites not given)). The test can be described thus: blot of GST-LckBP1 deletion mutants probed with biotinylated GST. An excerpt: DNA deletion fragments were obtained by PCR, and subcloned into the pGEX-2T vector (FIG. 7). The fusion proteins produced in *E. coli* were subjected to SDS-PAGE, transferred to a nitrocellulose filter, and probed with biotinylated GST or GST-Lck SH3 protein.

B1: GST-LckBP1-#8 (other)
chain: AIALYDYQGEGSDELSFDPDDIITDIEMVDEGWWRGQCRGHFGLFPANYVKLL
Turning to B1, the binding result is on record as “no binding”.

B2: GST-LckBP1-#5 (other)
chain: MEAPTTAYKKTTPIEAASSGARGLKAKFESLAEEKRKREEEEKAQQMARQQQERKAVVKMSREVQQ
Take B2: the binding result was “no binding”.

B3: GST-LckBP1-#4 (other)
chain: MEAPTTAYKKTTPIEAASSGARGLKAKFESLAEEKRKREEEEKAQQMARQQQERKAVVKMSREVQQPSMPVEEPAAPAQLPKKISSEVWPPAESHLPPESQPVRSRREYPVPSLPTRQSPL
In the case of B3, the binding result is “no binding”.
